Experimental data reported in PMC7913688, “Human Rev1 relies on insert-2 to promote selective binding and accurate replication of stabilized G-quadruplex motifs”.
Changes are numbered by the printed parent chain.

T1: hRev1 330-833 polymerase core (human, UniProt Q9UBZ9 330-833)
T1 sequence: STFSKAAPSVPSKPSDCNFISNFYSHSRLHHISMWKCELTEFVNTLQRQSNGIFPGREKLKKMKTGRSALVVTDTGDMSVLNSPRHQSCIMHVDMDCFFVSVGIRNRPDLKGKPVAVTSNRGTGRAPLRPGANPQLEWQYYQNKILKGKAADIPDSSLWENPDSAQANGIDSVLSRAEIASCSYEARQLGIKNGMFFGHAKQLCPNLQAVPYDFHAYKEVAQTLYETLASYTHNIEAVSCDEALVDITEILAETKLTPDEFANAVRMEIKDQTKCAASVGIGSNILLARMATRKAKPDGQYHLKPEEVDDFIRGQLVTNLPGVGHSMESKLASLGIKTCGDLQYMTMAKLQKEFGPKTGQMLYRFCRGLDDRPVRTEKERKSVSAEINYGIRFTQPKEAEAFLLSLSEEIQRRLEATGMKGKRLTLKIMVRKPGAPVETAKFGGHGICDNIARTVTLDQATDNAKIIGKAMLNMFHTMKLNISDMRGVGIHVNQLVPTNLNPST

T2: hRev1 330-833 L358A (human, UniProt Q9UBZ9 330-833, L358A)
T2 sequence: T1 sequence with L29A

T3: hRev1 330-833 Y470A (human, UniProt Q9UBZ9 330-833, Y470A)
T3 sequence: T1 sequence with Y141A

T4: hRev1 330-833 E466A (human, UniProt Q9UBZ9 330-833, E466A)
T4 sequence: T1 sequence with E137A


Assays:
[1] = target: T1, hRev1 330-833 polymerase core; test: fluorescence polarization; 100 mM LiCl; Fluorescence polarization: 1 nM FAM-DNA, 100 mM KCl or LiCl; DNA annealed in 50 mM HEPES pH 7.5; full buffer as in cited ref 17, temperature not stated. Footprinting: 50 mM HEPES pH 7.5, 100 mM KCl, 10 uM protein, 30 uM ssDNA, room temperature; settings: protein: recombinant; label: 5'-FAM
[2] = target: T2, hRev1 330-833 L358A; test: fluorescence polarization; 100 mM KCl?; Fluorescence polarization: 1 nM FAM-DNA, 100 mM KCl or LiCl; DNA annealed in 50 mM HEPES pH 7.5; full buffer as in cited ref 17, temperature not stated. Footprinting: 50 mM HEPES pH 7.5, 100 mM KCl, 10 uM protein, 30 uM ssDNA, room temperature; settings: protein: recombinant, label: 5'-FAM
[3] = target: T3, hRev1 330-833 Y470A; test: as above; settings: protein: recombinant, label: 5'-FAM
[4] = target: T4, hRev1 330-833 E466A; test: as above; settings: protein: recombinant, label: 5'-FAM
[5] = parallel G4 (1:2:1 loops) in K+

Binder	Kd [1] [µM]	Kd [2] [µM]	Kd [3] [µM]	Kd [4] [µM]	Kd [2, 5] [µM]	Kd [3, 5] [µM]	Kd [4, 5] [µM]
AGCGTGCGTAGCGTGCGTTATGAGATGAT (ssDNA) [Non-G4 Myc control ss]	0.76 ± 0.29	0.66 ± 0.14	0.74 ± 0.18	1.1 ± 0.13			
AGGGTGGGTAGGGTGGGTTATGAGATGAT (structured_DNA) [Myc 14/23 ss G4]					0.077 ± 0.008	0.18 ± 0.03	0.28 ± 0.02
